Source: patent CN117321082A (APOCOR LTD, dated 2023)

Experiments:
[1] = molecular target: T1, 全长人KLRG1 (full-length human KLRG1 on stably transfected CHOK1 cells) (human, UniProt Q96E93 1-195); assay: FACS on CHOK1 cells expressing full-length human KLRG1, detected with anti-human IgG-Alexa 488
T1 construct: whole, on cells; the cell assays used full-length protein; also called hKLRG1; CHOK1-hKLRG1
T1 sequence (looked up): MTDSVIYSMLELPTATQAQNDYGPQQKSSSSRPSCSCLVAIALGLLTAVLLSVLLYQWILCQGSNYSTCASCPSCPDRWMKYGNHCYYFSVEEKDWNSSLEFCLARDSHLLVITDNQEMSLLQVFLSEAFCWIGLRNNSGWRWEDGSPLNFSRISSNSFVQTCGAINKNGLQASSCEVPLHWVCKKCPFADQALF

[2] = molecular target: T1, 全长人KLRG1 (full-length human KLRG1 on …); assay: FACS competition on CHOK1-hKLRG1 cells; competitor 0.3 uM human E-cadherin-ECD-FC-biotin (Example 7)
[3] = molecular target: T1, 全长人KLRG1 (full-length human KLRG1 on …); assay: FACS competition on CHOK1-hKLRG1 cells; competitor 0.3 uM human E-cadherin-ECD-FC-biotin, detected with streptavidin-Alexa 488

B1: PA015 (antibody, human IgG1, kappa, V domains shown)
VH: QVTLRESGPALVKPTQTLTLTCTVSGFSLSTFGMGVGWIRQPPGKALEWLAHIWWDDDKWYELALKSRLTISKDTSKNQVVLTITNMDPVDTATYYCARVIYYGSRSAYYSMDYWGQGTTVTVSS
VL: DVVMTQTPLSLSVTPGQPASISCKSSQSIVHSNAHTYLEWYLQKPGQSPQLLIYKVSNRFSGVPDRFSGSGSGTDFTLKISRVEAEDVGVYYCFQGSHVPVTFGQGTKLEIKR
notes: also called PA015抗体; 抗KLRG1抗体
For B1, the EC50 [1] was 1.33 nM, the IC50 [2] was 5.3 nM and the IC50 [3] was 8.05 nM.
